The values below are quoted from earlier work in publication PMC12071589.

The data set deals with TROP2 (Homo sapiens) (UniProt P09758).
Sequence of TROP2 (Homo sapiens) (P09758 27-274): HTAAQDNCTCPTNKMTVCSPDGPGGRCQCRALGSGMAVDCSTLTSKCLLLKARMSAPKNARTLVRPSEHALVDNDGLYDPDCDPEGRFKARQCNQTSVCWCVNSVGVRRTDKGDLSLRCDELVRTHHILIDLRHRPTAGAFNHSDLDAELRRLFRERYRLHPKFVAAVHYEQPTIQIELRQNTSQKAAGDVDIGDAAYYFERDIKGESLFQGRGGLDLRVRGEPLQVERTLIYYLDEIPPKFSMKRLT

Turning to sacituzumab, the Kd was 0.26 nM.
